Biological target: T1, Muc16 on tumor cells (human, UniProt Q8WXI7 1-14507)
T1 construct: whole, on cells; Endogenous protein; also called CA125
Assay: flow cytometry on WISH cells

B1: OC125 (antibody)
chain 1: QVQLQESGPELVKPGASVKISCKASGYTFTDYNMHWVKQSHGKSLEWIGYIYPYNGDTGYNQKFRNKASLTVDTSSSTAYMELRSLTSEDSAVYYWARSGGFWYFDVWGQGGTTVTVSS
chain 2: DIQMTQSPAILSASPGEKVTMTCRATPSVSYMHWYQQKPGSSPKPLIYTTSNLASGVPARFSGGGSGTSYSLTVSRVEVEDAATYYCQQWSRSPPTFGAGTKLEIK
  fold fluorescence shift at saturation binding against MJ-171: > 5 fold

Reference: patent publication US20040057952A1 (IMMUNOGEN, published 2004)
